Experimental data published in US20030068416A1, “Method of lyophylization to reduce solvent content and enhance product recovery” (priority 2001, published 2003).

Legend:
Type in all cases: physicochemical
[1] = Residual solvent content of trypsin after lyophilization (Example 1); settings: primary and secondary drying cycles, 62 hours
Procedure: (§1) When the solvent is water, the residual solvent content referenced herein refer to levels determined by the FDA approved, modified Karl Fischer method (Meyer and Boyd, Analytical Chem., 31:215-219, 1959; May, et al., J. Biol. Standardization, 10:249-259, 1982; Centers for Biologics Evaluation and Research, FDA, Docket No. 89D-0140, 83-93; 1990) or by near infrared spectroscopy.
1 ml aliquots of trypsin alone or with 100 mM sodium ascorbate were placed in 3 ml vials. Samples were prepared in triplicate and subjected to lyophilization (primary and secondary drying cycles; 62 hours).

[2] = Residual solvent content of trypsin frozen overnight at -70 C and lyophilized (Example 3); settings: frozen overnight at -70 C before lyophilization
Procedure: as §1
(§2) 1 ml aliquots of trypsin alone or with 100 mM sodium ascorbate were placed in 3 ml vials and frozen overnight at −70° C. Samples were prepared in quadruplicate and subjected to lyophilization. Samples were removed (using sample thief) at the end of primary drying (22 hours after start of the cycle), the cycle continued to completion (62 hours after start of cycle) at this time vials were sealed under vacuum and removed from the freeze dryer.

[3] = Residual solvent content of trypsin after lyophilization, sampled after primary drying and at end of cycle (Example 2)
Procedure: as §1
as §2, with “vials.” for “vials and frozen overnight at −70° C.”, “triplicate” for “quadruplicate”

With trypsin the residual solvent content ([1]; absence of sodium ascorbate) was “about 1.8 % water”, the residual solvent content ([1]; presence of 100 mM sodium ascorbate) was “about 0.7 % water” and the residual solvent content ([2]; absence of ascorbate) was “about 3.9 % water”. For the same substance, the residual solvent content ([2]; presence of ascorbate (100 mM sodium ascorbate)) was 0.7 % water, the residual solvent content ([3]; absence of sodium ascorbate, following a primary drying cycle alone (22 hours)) was “about 5.8 % water” and the residual solvent content ([3]; absence of sodium ascorbate, following primary and secondary drying cycle (62 hours)) was “about 5.4 % water”. For the same substance, the residual solvent content ([3]; presence of 100 mM sodium ascorbate, following a primary drying cycle alone (22 hours)) was “about 2.8 % water” and the residual solvent content ([3]; presence of 100 mM sodium ascorbate, following primary and secondary drying cycle (62 hours)) was “about 1.1 % water”.
